# From patent publication US20190218304A1, “POTENTIATING THE EFFECT OF ATP RELEASE” (INNATE PHARMA, priority 2017, published 2019)
# “Also recorded” adds a separate entry of the source.
# B1: I-394: anti-CD39 antibody, VH SEQ ID NO: 3, VL SEQ ID NO: 4; heavy and light chains SEQ ID NOS: 37 and 38 (antibody)
# heavy: EVQLQQSGPELVKPGASVKMSCKASGYTFTDYNMHWVKQSHGRTLEWIGYIVPLNGGSTFNQKFKGRATLTVNTSSRTAYMELRSLTSEDSAAYYCARGGTRFAYWGQGTLVTVSAASTKGPSVFPLAPSSKSTSGGTAALGCLVKDYFPEPVTVSWNSGALTSGVHTFPAVLQSSGLYSLSSVVTVPSSSLGTQTYICNVNHKPSNTKVDKRVEPKSCDKTHTCPPCPAPEAEGAPSVFLFPPKPKDTLMISRTPEVTCVVVDVSHEDPEVKFNWYVDGVEVHNAKTKPREEQYNSTYRVVSVLTVLHQDWLNGKEYKCKVSNKALPSSIEKTISKAKGQPREPQVYTLPPSREEMTKNQVSLTCLVKGFYPSDIAVEWESNGQPENNYKTTPPVLDSDGSFFLYSKLTVDKSRWQQGNVFSCSVMHEALHNHYTQKSLSLSPGK
# light: DIVLTQSPASLAVSLGQRATISCRASESVDNFGVSFMYWFQQKPGQPPNLLIYGASNQGSGVPARFRGSGSGTDFSLNIHPMEADDTAMYFCQQTKEVPYTFGGGTKLEIKRTVAAPSVFIFPPSDEQLKSGTASVVCLLNNFYPREAKVQWKVDNALQSGNSQESVTEQDSKDSTYSLSSTLTLSKADYEKHKVYACEVTHQGLSSPVTKSFNRGEC
# modifications: Chimeric homo sapiens mus musculus
# Columns and labels:
# [1] = molecular target: T1, CD39 expressed by Ramos human lymphoma cells (Homo sapiens, UniProt P49961); assay: Inhibition of the enzymatic activity of cellular CD39, Ramos cells (Cell Titer Glo); format: cell-based
# T1 construct: host or cells: Ramos human lymphoma cells
# T1 sequence (P49961 1-510): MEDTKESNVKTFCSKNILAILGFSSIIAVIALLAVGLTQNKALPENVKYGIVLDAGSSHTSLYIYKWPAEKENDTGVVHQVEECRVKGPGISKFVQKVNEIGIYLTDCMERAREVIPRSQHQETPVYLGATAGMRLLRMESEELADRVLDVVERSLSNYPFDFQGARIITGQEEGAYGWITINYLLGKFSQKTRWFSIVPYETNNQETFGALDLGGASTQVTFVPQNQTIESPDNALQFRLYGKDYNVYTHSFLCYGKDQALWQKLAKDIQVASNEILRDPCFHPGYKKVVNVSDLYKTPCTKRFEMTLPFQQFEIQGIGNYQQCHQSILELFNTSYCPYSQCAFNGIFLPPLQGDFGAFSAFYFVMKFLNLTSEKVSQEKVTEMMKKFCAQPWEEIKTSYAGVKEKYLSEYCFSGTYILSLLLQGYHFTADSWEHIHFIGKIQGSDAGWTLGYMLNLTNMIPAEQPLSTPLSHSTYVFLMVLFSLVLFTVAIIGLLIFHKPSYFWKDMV
# Procedure: (§1) The inhibition of the CD39 enzymatic activity in CD39-expressing cells by antibodies was evaluated using Cell Titer Glo™ (Promega, reference G7571) that allows assessment of ATP hydrolysis through use of a reagent that generates a luminescent signal proportional to the amount of ATP present. The assay was thus designed to permit assessment of the inhibition of ATP hydrolyzed by CD39 in the cell culture supernatant. Briefly, 5×10^4 Ramos human lymphoma cells, 5×10^3 human CD39-, cynomolgus CD39- and mouse CD39-expressing CHO cells, were incubated 1 hour at 37° C. with anti-CD39 antibodies from 30 μg/ml to 5×10^−4 μg/ml. Cells were then incubated with 20 μM ATP for 1 additional hour at 37° C. Plates were centrifuged for 2 min at 400 g and 50 μl cell supernatant are transferred in a luminescence microplate (white wells). 50 μl CellTiter-Glo® Reagent (CTG) was added to the supernatant and emitted light was quantified after a 5 min incubation in the dark using a Enspire™ luminometer. Anti-CD39 antibody efficacy was determined by comparing emitted light in presence of antibody with ATP alone (maximal light emission) and ATP together with cells (minimal light emission).
# [2] = molecular target: T2, human CD39-expressing CHO cells (Homo sapiens, UniProt P49961); assay: Inhibition of the enzymatic activity of cellular CD39, CHO-huCD39 cells; format: cell-based; conditions: result in words
# T2 construct: expressed in transfected cells; host or cells: CHO cells
# T2 sequence (P49961 1-510): T1 sequence (P49961 1-510)
# Procedure: as §1
# [3] = system: cynomolgus CD39-expressing CHO cells; assay: Inhibition of the enzymatic activity of cellular CD39, CHO-cyCD39 cells; format: cell-based; conditions: result in words
# Procedure: as §1
# cell-membrane bound CD39 = molecular target: T3, cell-membrane bound CD39 (Homo sapiens, UniProt P49961); assay: Inhibition of the enzymatic activity of cellular CD39 (cells not specified); format: cell-based
# T3 sequence (P49961 1-510): T1 sequence (P49961 1-510)
# Procedure: as §1, with “emission). […]” for “emission).”
# [4] = molecular target: T4, human Ramos lymphoma cells (Homo sapiens, UniProt P49961); assay: Antibody titration by flow cytometry on Ramos cells; format: binding
# T4 construct: host or cells: Ramos human lymphoma cells
# T4 sequence (P49961 1-510): T1 sequence (P49961 1-510)
# Procedure: Cells were incubated with various concentration of unlabeled anti-CD39 antibody from 30 μg/ml to 5×10^−4 μg/ml, for 30 minutes at 4° C. After washes, cells were incubated with Goat anti-mouse H+L labeled secondary antibody for 30 min at 4° C.
# [5] = molecular target: T5, Human CD39-L1, also known as NTPDase2 or ENTPD2 (Homo sapiens, UniProt Q9Y5L3); assay: ELISA titration on CD39-L1; format: binding; conditions: coated recombinant protein, OD=450
# T5 sequence (Q9Y5L3 1-472 isoform Q9Y5L3-2): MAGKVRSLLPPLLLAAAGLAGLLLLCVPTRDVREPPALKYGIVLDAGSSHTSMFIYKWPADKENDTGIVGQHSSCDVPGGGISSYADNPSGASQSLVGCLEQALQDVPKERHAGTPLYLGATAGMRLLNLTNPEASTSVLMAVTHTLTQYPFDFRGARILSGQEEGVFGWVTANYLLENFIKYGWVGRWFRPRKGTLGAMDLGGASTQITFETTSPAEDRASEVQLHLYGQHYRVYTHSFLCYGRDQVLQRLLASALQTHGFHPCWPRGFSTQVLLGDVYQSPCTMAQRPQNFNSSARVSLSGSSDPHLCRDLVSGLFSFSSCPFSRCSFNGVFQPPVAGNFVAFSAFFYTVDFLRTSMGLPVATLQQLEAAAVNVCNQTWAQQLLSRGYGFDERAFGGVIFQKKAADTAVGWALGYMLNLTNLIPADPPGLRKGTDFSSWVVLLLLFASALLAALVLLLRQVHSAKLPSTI
# Procedure: Wells were washed in TBS Tween 20, and further saturated 2H at RT in TBS Blocking buffer. Dose range concentration of primary antibody was incubated in TBS blocking buffer for 2 h at RT. Wells were washed in TBS Tween 20. […] Optical density was measured on Enspire™ at OD=450.
# allogenic CD4 T cells = assay: Mixed lymphocytes reaction (MLR) of ATP-activated DC with allogenic CD4 T cells; format: cell-based, human; conditions: ATP-activated MoDC, 1 MoDC/4 T cells, 5 days
# Procedure: T cells activation and proliferation were analyzed through CD25 expression and Cell Trace Violet dilution by flow cytometry.
# Briefly, human monocytes were purified from human healthy blood and differentiated into MoDC in presence of GM-CSF and IL-4 during 6 days. Then MoDC were activated in presence of ATP (Sigma, 0.25-1 mM) during 24 hours and DC activation were assessed by analyzing CD80, CD83 and HLA-DR expression by flow cytometry. […] LPS (Invivogen, 10 ng/ml) was used as positive control. To assess resulting effect of ATP-mediated DC activation on CD4 T cells activation, ATP-activated DC were washed and then incubated with allogenic CD4 T cells (ratio 1 MoDC/4 T cells) for a mixed lymphocytes reaction (MLR) during 5 days. T cells activation and proliferation were analyzed through CD25 expression and Cell Trace Violet dilution by flow cytometry (FIG. 8).
molecule,measurement,setting,value
B1,"maximum inhibition achieved, cellular CD39","[1]; Ramos cells, 20 μM ATP",81.6%
same,blocking CD39 enzymatic activity in tumor (Ramos) cells,[1]; result in words,highly potent at blocking CD39 enzymatic activity
same,blocking CD39 enzymatic activity in cells expressing human CD39 (CHO-huCD39),[2],blocks CD39 enzymatic activity; also recorded: highly potent at blocking CD39 enzymatic activity
same,blocking CD39 enzymatic activity in cells expressing cynomolgus CD39 (CHO-cyCD39),[3],blocks CD39 enzymatic activity; also recorded: highly potent at blocking CD39 enzymatic activity
same,"potency and maximal inhibition of cellular CD39, comparison between antibodies (FIG. 2A)",cell-membrane bound CD39; compared with BY40,greater potency and maximal inhibition of cellular CD39 compared to BY40; also recorded: greater potency at all concentrations as well as greater maximal inhibition of cellular CD39 compared to BY40
same,inhibition of cell-membrane bound (cellular) CD39 ATPase activity,cell-membrane bound CD39; result in words,inhibit cell-membrane bound CD39
same,binding to Ramos lymphoma cells,[4],bound; also recorded: binds
same,binding to CD39-L1 in ELISA,[5],not to any of the human isoforms
same,"T cell proliferation and activation (CD25 expression, Cell Trace Violet dilution) in MLR",allogenic CD4 T cells,higher T cell proliferation and activation
